Experimental data taken from US7026443.
Where two headings read alike, the source gives them in different places.

Columns and labels:
HLA-B*0702 (human) [1] = assay: competition with 125I-labeled standard peptide for purified HLA, gel filtration
HLA-A*1101 (human) [2] = assay: inhibition of 125I-labeled standard peptide binding to purified HLA, gel filtration
HLA-A*0301 (human) = assay: as above
HLA-A*1101 (human) [3] = assay: competition with 125I-labelled standard peptide for purified HLA-A*1101, gel filtration
HLA-A*0101 (human) [4] = assay: competition with 125I-labelled standard peptide for purified HLA-A*0101, gel filtration
[5] = target: HLA-A*1101 (purified HLA class I molecule) (human)
HLA-B*3501 (human) = assay: competition with 125I-labelled standard peptide for purified HLA, gel filtration
HLA-B*0702 (human) [6] = assay: as above
HLA-B*5101 (human) = assay: as above
HLA-B*5301 (human) = assay: as above
HLA-B*5401 (human) = assay: as above
HLA-A*1101 (human) [7] = assay: competition with 125I-labelled standard probe peptide for purified HLA-A*1101, gel filtration
HLA-A*2402 (human) [8] = assay: competition with 125I-labelled standard peptide for purified HLA-A*2402, gel filtration
HLA-A*2402 (human) [9] = assay: competition with 125I-labelled standard probe peptide for purified HLA-A*2402, gel filtration
HLA-A*0101 (human) [10] = assay: competition with 125I-labelled standard peptide 944.02 ([..]) for purified HLA-A*0101, gel filtration
[11] = remark: other sources report otherwise

Binder: LPQLCTEL (modifications not checked) [HPV16 E6 19 LPQLCTEL]
- binding affinity ratio (IC50 of standard peptide / IC50 of test peptide) (HLA-B*0702 (human) [1]): 0.0055

Binder: LTNILNVLK (modifications not checked) [HPV16 E1 peptide … (position 191, 9 amino acids)]
- binding affinity ratio (IC50 of standard peptide / IC50 of test peptide) (HLA-A*1101 (human) [2]): 0.42
- binding affinity ratio (IC50 of standard peptide / IC50 of test peptide) (HLA-A*0301 (human)): 0.0086

Binder: VCDKCLKFY (modifications not checked) [… (HPV16 E6, position 69, 9 amino acids)]
- relative binding ratio (IC50 of standard peptide / IC50 of test peptide) (HLA-A*1101 (human) [3]): 0.0002
- relative binding ratio (IC50 of standard peptide / IC50 of test peptide) (HLA-A*0101 (human) [4]): 0.0017

Binder: VVYRDSIPH (modifications not checked) [HPV18 E6 54-62 peptide …]
- relative binding ratio (IC50 of standard peptide / IC50 of test peptide) [5]: 0.38

Binder: GPKATLQDIV (modifications not checked) [HPV18 E7 peptide … (position 3, 10 amino acids)]
- binding affinity ratio (IC50 of standard peptide / IC50 of test peptide) (HLA-B*3501 (human)): 0.0001
- binding affinity ratio (IC50 of standard peptide / IC50 of test peptide) (HLA-B*0702 (human) [6]): 0.0001
- binding affinity ratio (IC50 of standard peptide / IC50 of test peptide) (HLA-B*5101 (human)): 0.0001
- binding affinity ratio (IC50 of standard peptide / IC50 of test peptide) (HLA-B*5301 (human)): 0.0001
- binding affinity ratio (IC50 of standard peptide / IC50 of test peptide) (HLA-B*5401 (human)): 0.0001

Binder: HGDTPTLHEY (modifications not checked) [… (HPV16 E7, position 2, 10 amino acids)]
- relative binding ratio (IC50 of standard peptide / IC50 of test peptide) (HLA-A*1101 (human) [3]; [11]): 0.0001
- relative binding ratio (IC50 of standard peptide / IC50 of test peptide) (HLA-A*0101 (human) [4]; [11]): 0.003

Binder: LSLHEDEDK (modifications not checked) [HPV16 E1 peptide … (position 620, 9 amino acids)]
- binding affinity ratio (IC50 of standard peptide / IC50 of test peptide) (HLA-A*1101 (human) [2]): 0.0002
- binding affinity ratio (IC50 of standard peptide / IC50 of test peptide) (HLA-A*0301 (human)): 0.0005

Binder: NIHPAKDNR (modifications not checked) [HPV18 E1 574 …]
- binding affinity ratio (IC50 of standard peptide / IC50 of test peptide) (HLA-A*1101 (human) [7]): 0.0002

Binder: PYAVCDKCLKF (modifications not checked) [HPV16 E6 66 …]
- relative binding ratio (IC50 of standard peptide / IC50 of test peptide) (ratio to standard peptide) (HLA-A*2402 (human) [8]): 0.11
- relative binding ratio (IC50 of standard peptide / IC50 of test peptide) (HLA-A*2402 (human) [9]): 0.11

Binder: KPLNPAEKL (modifications not checked) [HPV18 E6 peptide … (position 110, 9 amino acids)]
- binding affinity ratio (IC50 of standard peptide / IC50 of test peptide) (HLA-B*3501 (human)): 0.0001
- binding affinity ratio (IC50 of standard peptide / IC50 of test peptide) (HLA-B*0702 (human) [6]): 0.035
- binding affinity ratio (IC50 of standard peptide / IC50 of test peptide) (HLA-B*5101 (human)): 0.0001
- binding affinity ratio (IC50 of standard peptide / IC50 of test peptide) (HLA-B*5301 (human)): 0.0001
- binding affinity ratio (IC50 of standard peptide / IC50 of test peptide) (HLA-B*5401 (human)): 0.0002

Binder: CIVYRDGNPY (modifications not checked) [HPV16 E6 58 …]
- binding affinity ratio (IC50 of standard peptide / IC50 of test peptide) (HLA-A*0101 (human) [10]): 0.0015

Binder: TGLYNLLIR (modifications not checked) [HPV18 E6 96-104 peptide …]
- relative binding ratio (IC50 of standard peptide / IC50 of test peptide) [5]: 0.0002

Binder: LILALLRYK (modifications not checked) [HPV18 E1 281 …]
- binding affinity ratio (IC50 of standard peptide / IC50 of test peptide) (HLA-A*1101 (human) [7]): 0.18

Binder: LTTNIHPAK (modifications not checked) [HPV18 E1 571 …]
- binding affinity ratio (IC50 of standard peptide / IC50 of test peptide) (HLA-A*1101 (human) [7]): 0.12

Binder: RFHNIAGHY (modifications not checked) [HPV18 E6 126-134 peptide …]
- relative binding ratio (IC50 of standard peptide / IC50 of test peptide) [5]: 0.0002

Binder: AVCDKCLKFY (modifications not checked) [HPV16 E6 68 …]
- binding affinity ratio (IC50 of standard peptide / IC50 of test peptide) (HLA-A*0101 (human) [10]): 0.0095

Binder: NPAEKLRHL (modifications not checked) [HPV18 E6 peptide … (position 113, 9 amino acids)]
- binding affinity ratio (IC50 of standard peptide / IC50 of test peptide) (HLA-B*3501 (human)): 0.0001
- binding affinity ratio (IC50 of standard peptide / IC50 of test peptide) (HLA-B*0702 (human) [6]): 0.011
- binding affinity ratio (IC50 of standard peptide / IC50 of test peptide) (HLA-B*5101 (human)): 0.0001
- binding affinity ratio (IC50 of standard peptide / IC50 of test peptide) (HLA-B*5301 (human)): 0.0001
- binding affinity ratio (IC50 of standard peptide / IC50 of test peptide) (HLA-B*5401 (human)): 0.0002

Binder: NTGLYNLLIR (modifications not checked) [HPV18 E6 95-104 peptide …]
- relative binding ratio (IC50 of standard peptide / IC50 of test peptide) [5]: 0.0013

Binder: EPQNEIPVDL (modifications not checked) [HPV18 E7 peptide … (position 16, 10 amino acids)]
- binding affinity ratio (IC50 of standard peptide / IC50 of test peptide) (HLA-B*3501 (human)): 0.0005
- binding affinity ratio (IC50 of standard peptide / IC50 of test peptide) (HLA-B*0702 (human) [6]): 0.0001
- binding affinity ratio (IC50 of standard peptide / IC50 of test peptide) (HLA-B*5101 (human)): 0.0001
- binding affinity ratio (IC50 of standard peptide / IC50 of test peptide) (HLA-B*5301 (human)): 0.0001
- binding affinity ratio (IC50 of standard peptide / IC50 of test peptide) (HLA-B*5401 (human)): 0.0001
